{"source": "paper doi:10.1101/2025.04.22.649955", "key": {"[1]": {"molecular_target": "SynGAP[PSD95] condensates (mCherry-SynGAP with PSD95-mGFP) (human | rat) (UniProt P31016)", "sequence (P31016 whole entry, looked up)": "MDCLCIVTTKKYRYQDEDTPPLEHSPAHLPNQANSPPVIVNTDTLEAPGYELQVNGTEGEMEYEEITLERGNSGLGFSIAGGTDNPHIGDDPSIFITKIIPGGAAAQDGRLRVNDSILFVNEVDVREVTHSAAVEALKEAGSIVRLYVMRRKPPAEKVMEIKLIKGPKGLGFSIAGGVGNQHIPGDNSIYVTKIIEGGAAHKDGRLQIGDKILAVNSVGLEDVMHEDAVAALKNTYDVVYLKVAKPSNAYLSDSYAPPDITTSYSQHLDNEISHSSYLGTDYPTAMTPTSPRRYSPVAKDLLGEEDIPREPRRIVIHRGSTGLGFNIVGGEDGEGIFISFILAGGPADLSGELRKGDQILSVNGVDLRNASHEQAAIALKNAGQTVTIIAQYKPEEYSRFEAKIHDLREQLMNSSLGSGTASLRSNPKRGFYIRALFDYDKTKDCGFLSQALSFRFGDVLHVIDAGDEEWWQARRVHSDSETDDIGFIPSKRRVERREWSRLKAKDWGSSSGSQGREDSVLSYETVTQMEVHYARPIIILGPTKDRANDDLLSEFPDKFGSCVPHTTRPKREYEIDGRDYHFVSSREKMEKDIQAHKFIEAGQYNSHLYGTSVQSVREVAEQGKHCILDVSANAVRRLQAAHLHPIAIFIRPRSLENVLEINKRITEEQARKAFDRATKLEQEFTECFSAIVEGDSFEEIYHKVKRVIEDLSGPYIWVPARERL"}}, "data": [{"substance": "GluA1(ΔNTD)-TARP2", "values": [{"measurement": "percent of molecules as dimers", "setting": "GluA1(ΔNTD)-TARP2", "value": 45, "unit": "%"}, {"measurement": "percent of molecules as monomers", "setting": "GluA1(ΔNTD)-TARP2", "value": 41, "unit": "%"}, {"measurement": "percent of molecules as tetramers", "setting": "GluA1(ΔNTD)-TARP2", "value": 14, "unit": "%"}]}, {"substance": "GluA1-TARP2", "values": [{"measurement": "percent of molecules as dimers", "setting": "GluA1-TARP2", "value": 39, "unit": "%"}, {"measurement": "percent of molecules as monomers", "setting": "GluA1-TARP2", "value": 19, "unit": "%"}, {"measurement": "percent of molecules as tetramers", "setting": "GluA1-TARP2", "value": 2, "unit": "%"}, {"measurement": "percent of molecules as trimers", "setting": "GluA1-TARP2", "value": 18, "unit": "%"}]}, {"substance": "Halo7-tagged wild-type Neuroligin1 (from UniProt Q99K10 46-843) (receptor)", "values": [{"measurement": "fold of the fraction of the τ2 dwell-lifetime component against mNlg1", "setting": "[1]", "value": 2.5, "unit": "fold"}]}]}
